Results reported in patent US20230405046A1.

The binders below were run against HLA-A*01:01 presenting KRAS-Q61H 55-64 (…) (human) (assay: cell-based or functional assay).

Row | minimal recognized peptide concentration (functional avidity, IFNγ ELISPOT) [nM] | Binder
1 | 10 | TCRCD8-EL8-LM7 #4 (TCR) TCR alpha: AQKVTQAQTEISVVEKEDVTLDCVYETRDTTYYLFWYKQPPSGELVFLIRRNSFDEQNEISGRYSWNFQKSTSSFNFTITASQVVDSAVYFCALSNAGGTSYGKLTFGQGTILTVHPNIQNPDPAVYQLRDS TCR beta: EAQVTQNPRYLITVTGKKLTVTCSQNMNHEYMSWYRQDPGLGLRQIYYSMNVEVTDKGDVPEGYKVSRKEKRNFPLILESPSPNQTSLYFCASSRRLPPPYGYTFGSGTRLTVVEDLNKVFPPEVAVFE
2 | 10 | TCRCD8-EL8-LM7 #7 (TCR) TCR alpha: AQKVTQAQTEISVVEKEDVTLDCVYETRDTTYYLFWYKQPPSGELVFLIRRNSFDEQNEISGRYSWNFQKSTSSFNFTITASQVVDSAVYFCALSESSNTGKLIFGQGTTLQVKPDIQNPDPAVYQLRDS TCR beta: EAQVTQNPRYLITVTGKKLTVTCSQNMNHEYMSWYRQDPGLGLRQIYYSMNVEVTDKGDVPEGYKVSRKEKRNFPLILESPSPNQTSLYFCASSRREPPPYGYTFGSGTRLTVVEDLNKVFPPEVAVFE
3 | 10 | TCRCD8-EL8-LM7 #1 (TCR) TCR alpha: AQKITQTQPGMFVQEKEAVTLDCTYDTSDPSYGLFWYKQPSSGEMIFLIYQGSYDQQNATEGRYSLNFQKARKSANLVISASQLGDSAMYFCAMREGQDSSYKLIFGSGTRLLVRPDIQNPDPAVYQLRDS TCR beta: MGTRLLCCVAFCLLGAGPVDSGVTQTPKHLITATGQRVTLRCSPRSGDLSVYWYQQSLDQGLQFLIQYYNGEERAKGNILERFSAQQFPDLHSELNLSSLELGDSALYFCASSVLGPNTEAFFGQGTRLTVVEDLNKVFPPEVAVFE
4 | 100 | TCRCD8-EL8-LM7 #8 (TCR) TCR alpha: AQKITQTQPGMFVQEKEAVTLDCTYDTSDPSYGLFWYKQPSSGEMIFLIYQGSYDQQNATEGRYSLNFQKARKSANLVISASQLGDSAMYFCAMREIRDSSYKLIFGSGTRLLVRPDIQNPDPAVYQLRDS TCR beta: MGTRLLCCVAFCLLGAGPVDSGVTQTPKHLITATGQRVTLRCSPRSGDLSVYWYQQSLDQGLQFLIQHYNGEERAKGNILERFSAQQFPDLHSELNLSSLELGDSALYFCASSPAGPNTEAFFGQGTRLTVVEDLNKVFPPEVAVFE
